Experimental findings from patent US8367368B2, “D-serine dehydratase and use thereof” (National University Corporation Nagoya University, priority 2006, dated 2013) are described below.

As usually defined, the Km is the substrate concentration at which the rate is half of its maximum.

What all share (type): biochemical
For data set [1], the target named is T1, novel D-serine dehydratase (Saccharomyces cerevisiae, UniProt P53095).
T1 construct: made in house; host or cells: Escherichia coli BL21 (DE3)
T1 sequence (P53095 1-428): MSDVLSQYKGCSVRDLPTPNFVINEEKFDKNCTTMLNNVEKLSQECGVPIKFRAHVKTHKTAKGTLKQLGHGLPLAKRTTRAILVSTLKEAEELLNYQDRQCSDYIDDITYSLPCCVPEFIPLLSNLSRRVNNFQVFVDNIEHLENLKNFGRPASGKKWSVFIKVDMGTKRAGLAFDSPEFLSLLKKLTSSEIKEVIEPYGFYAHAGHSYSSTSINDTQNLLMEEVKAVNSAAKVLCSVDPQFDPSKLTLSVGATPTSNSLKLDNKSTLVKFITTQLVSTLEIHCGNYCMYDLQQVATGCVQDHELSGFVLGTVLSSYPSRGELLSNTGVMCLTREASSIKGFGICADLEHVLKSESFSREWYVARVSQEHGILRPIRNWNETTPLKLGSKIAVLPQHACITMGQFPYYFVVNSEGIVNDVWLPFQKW
The data set can be described thus: Influence of metal ion and EDTA on enzymatic activity, Nessler method. The method, then: (§1) To a reaction solution (final volume: 200 μl) containing 50 mM of HEPES-NaOH buffer (pH 8.0), […] of pyridoxal-5′-phosphate and 10 mM of D-serine, an appropriate amount of D-serine dehydratase was added and incubated at 30° C. Thereafter, trichloroacetic acid (final concentration: 5%) was added to stop the reaction. Ammonia in the centrifuged supernatant was quantified by using a Nessler reagent.
The influence and effect of metal ion on the activity of the novel enzyme were examined by the following method. The compounds shown in FIG. 5 were incubated with untreated novel enzyme and 2 mM EDTA, and then dialyzed with Tris buffer solution. The D-serine dehydratase activity of the novel enzyme was measured by a Nessler method in the presence of 0.05 mM or 0.5 mM of any of KCl, NaCl, MnCl2, MgCl2, CaCl2, NiSO4, CuSO4 and ZnCl2.

Data set [2] in a line: D-serine dehydratase activity of the purified enzyme, Nessler method. As to conditions: 10 mM D-serine, HEPES-NaOH pH 8.0, 30° C. The method, then: as §1, with “The activity of serine dehydratase was measured as follows: ammonia as a reaction product was measured by a Nessler method or pyruvic acid as a reaction product was measured by coupling with lactate dehydrogenase and by oxidation of NADH. Hereinafter, outline of each method is shown. To” for “To”

Data set [3] in a line: Substrate-specificity by the Nessler method, L-serine as substrate. As to conditions: same conditions as D-serine. The method, then:
(§2) To a reaction solution (final volume: 200 μl) containing 50 mM of HEPES-NaOH buffer (pH 8.0), […] of pyridoxal-5′-phosphate and 10 mM of D-serine, an appropriate amount of D-serine dehydratase was added and incubated at 30° C. Thereafter, trichloroacetic acid (final concentration: 5%) was added to stop the reaction. Ammonia in the centrifuged supernatant was quantified by using a Nessler reagent. The substrate-specificity of the novel enzyme was examined by the following method. That is to say, as the substrate, L-serine and D-threonine in addition to D-serine were prepared, and the reactivity of the enzyme with respect to each substrate was examined by the Nessler method. Note here that the reactivity of the enzyme with respect to L-serine or D-threonine was examined by the Nessler method in the same conditions as in the case of D-Serine except that L-serine (Wako Pure Chemical Industries, Ltd.) or D-threonine (Wako Pure Chemical Industries, Ltd.) was used as a substrate.

Data set [4] is described as follows: Substrate-specificity by the Nessler method, D-threonine as substrate. The following applies: same conditions as D-serine. As for the experimental part:
as §2

The nature of data set [5]: Effect of pH on enzymatic activity, Nessler method. The following applies: MOPS, MES, HEPES, Tris buffers. The method, then:
as §1
The relationship between the activity of the novel enzyme and pH at the reaction was examined by the following method. In the Nessler method, buffer solution was changed to MOPS (pH 6.5-8.0), MES (pH 6.0-6.5), HEPES (pH 7.0-8.5), and Tris (pH 7.5-9.0), respectively. By using the reaction solution, the D-serine dehydratase activity of the novel enzyme was measured.

Data set [6] can be described thus: Dynamic characteristic (reciprocal plot of rate against D-serine concentration), Nessler method. As to conditions: substrate D-serine. As for the experimental part:
as §1
The dynamic characteristic of the novel enzyme was examined by the following method. In the Nessler method, the concentration of D-serine was changed and the D-serine dehydratase activity of the novel enzyme in the respective concentrations of D-serine was measured. The inverse number of the obtained rate was plotted to the inverse number of the D-serine concentration. Then, the maximum rate was calculated from the inverse number of the y section and Km value was calculated from the inverse number of the x section.

“Also recorded” adds a separate entry of the source.

As to `[Cl-].[Cl-].[Zn+2]` [zinc, ZnCl2], the “effect of zinc on enzymatic activity” value in data set [1] (addition of zinc to EDTA-treated enzyme, low concentration) was “activated”. In addition, in data set [1] (same experiment while changing the zinc concentration), the “zinc concentration at which the enzymatic activity was increased most” value was 0.005 mM.
As for `O=C(O)CN(CCN(CC(=O)O)CC(=O)O)CC(=O)O` [EDTA], the “effect of EDTA on enzymatic activity” value in data set [1] (incubated with 2 mM EDTA, then dialyzed with Tris buffer) is on record as “mostly deactivated; also recorded: inhibited”.

B1: novel D-serine dehydratase: protein of Saccharomyces cerevisiae, YGL196W (SEQ ID NO: 1), with D-serine dehydratase activity; recombinant, His-tagged, expressed in Escherichia coli (protein, listed as Saccharomyces cerevisiae)
chain: MSDVLSQYKGCSVRDLPTPNFVINEEKFDKNCTTMLNNVEKLSQECGVPIKFRAHVKTHKTAKGTLKQLGHGLPLAKRTTRAILVSTLKEAEELLNYQDRQCSDYIDDITYSLPCCVPEFIPLLSNLSRRVNNFQVFVDNIEHLENLKNFGRPASGKKWSVFIKVDMGTKRAGLAFDSPEFLSLLKKLTSSEIKEVIEPYGFYAHAGHSYSSTSINDTQNLLMEEVKAVNSAAKVLCSVDPQFDPSKLTLSVGATPTSNSLKLDNKSTLVKFITTQLVSTLEIHCGNYCMYDLQQVATGCVQDHELSGFVLGTVLSSYPSRGELLSNTGVMCLTREASSIKGFGICADLEHVLKSESFSREWYVARVSQEHGILRPIRNWNETTPLKLGSKIAVLPQHACITMGQFPYYFVVNSEGIVNDVWLPFQKW
modifications: His tag
notes: recombinant, His-tagged, expressed in Escherichia coli
Consider B1, for which, in data set [2], the specific activity turned out to be 3.7 gmol/min/mg. For the same molecule, the results for the “reactivity with respect to L-serine” value in data set [3] and in data set [3] (listed as novel enzyme) were “does not react with L-serine at all” and “no reactivity”, respectively. Also, in data set [4], the “reactivity to D-threonine when the reactivity to D-serine was 100%” value came to 5%. For the same molecule, the “reactivity with respect to D-threonine” value in data set [4] is recorded as “extremely low”; in data set [4] (listed as novel enzyme), “low reaction”. In data set [5], the “optimum pH” value was “around 8”. In data set [6] (Example text), this molecule came in with a maximum rate of 4.2 µmol/min/mg. Further, the Vmax value in data set [6] (FIG. 7 legend) was 4.2 µmol/min/mg. Besides, the Km in data set [6] (read-out: Km value with respect to D-serine) is 460 µM.
